From patent US20230365662A1
“And” between values parts separate entries of the source, which are not always exact repeats. Equal entries are not always repeated.

B1: KB001 parental mouse Fab VH variant G99C (Fab, V domains shown)
VH: EVQLKQSGPGLVAPSQSLSITCTVSGFSLSIYSVHWVRQPPGKGLEWLGMIWGGGSSDYNSALKSRLSISKDNSKSQVFLKMNSLQTDDTAMYYCARNCNFYAMDYWGQGTSVTVSS
VL: QIVLTQSPAIMSASLGERVTMTCTASSSVSSSFLHWYQQKPGSSPQLWIYSTSNLASGVPARFSGSGSGTSYSLTISSMEAEDAATYYCHQYHHSPYIYTFGGGTKLEIK
B2: KB001 parental mouse Fab VH variant N100Y (Fab, V domains shown)
VH: EVQLKQSGPGLVAPSQSLSITCTVSGFSLSIYSVHWVRQPPGKGLEWLGMIWGGGSSDYNSALKSRLSISKDNSKSQVFLKMNSLQTDDTAMYYCARNGYFYAMDYWGQGTSVTVSS
VL: QIVLTQSPAIMSASLGERVTMTCTASSSVSSSFLHWYQQKPGSSPQLWIYSTSNLASGVPARFSGSGSGTSYSLTISSMEAEDAATYYCHQYHHSPYIYTFGGGTKLEIK
B3: KB001 parental mouse Fab VH variant A103G (Fab, V domains shown)
VH: EVQLKQSGPGLVAPSQSLSITCTVSGFSLSIYSVHWVRQPPGKGLEWLGMIWGGGSSDYNSALKSRLSISKDNSKSQVFLKMNSLQTDDTAMYYCARNGNFYGMDYWGQGTSVTVSS
VL: QIVLTQSPAIMSASLGERVTMTCTASSSVSSSFLHWYQQKPGSSPQLWIYSTSNLASGVPARFSGSGSGTSYSLTISSMEAEDAATYYCHQYHHSPYIYTFGGGTKLEIK
B4: KB001 parental mouse Fab VH variant N100I (Fab, V domains shown)
VH: EVQLKQSGPGLVAPSQSLSITCTVSGFSLSIYSVHWVRQPPGKGLEWLGMIWGGGSSDYNSALKSRLSISKDNSKSQVFLKMNSLQTDDTAMYYCARNGIFYAMDYWGQGTSVTVSS
VL: QIVLTQSPAIMSASLGERVTMTCTASSSVSSSFLHWYQQKPGSSPQLWIYSTSNLASGVPARFSGSGSGTSYSLTISSMEAEDAATYYCHQYHHSPYIYTFGGGTKLEIK
B5: KB001 parental mouse Fab VH variant N100S (Fab, V domains shown)
VH: EVQLKQSGPGLVAPSQSLSITCTVSGFSLSIYSVHWVRQPPGKGLEWLGMIWGGGSSDYNSALKSRLSISKDNSKSQVFLKMNSLQTDDTAMYYCARNGSFYAMDYWGQGTSVTVSS
VL: QIVLTQSPAIMSASLGERVTMTCTASSSVSSSFLHWYQQKPGSSPQLWIYSTSNLASGVPARFSGSGSGTSYSLTISSMEAEDAATYYCHQYHHSPYIYTFGGGTKLEIK
B6: KB001 parental mouse Fab VH variant F101S (Fab, V domains shown)
VH: EVQLKQSGPGLVAPSQSLSITCTVSGFSLSIYSVHWVRQPPGKGLEWLGMIWGGGSSDYNSALKSRLSISKDNSKSQVFLKMNSLQTDDTAMYYCARNGNSYAMDYWGQGTSVTVSS
VL: QIVLTQSPAIMSASLGERVTMTCTASSSVSSSFLHWYQQKPGSSPQLWIYSTSNLASGVPARFSGSGSGTSYSLTISSMEAEDAATYYCHQYHHSPYIYTFGGGTKLEIK
B7: KB001 parental mouse Fab VH variant N100G (Fab, V domains shown)
VH: EVQLKQSGPGLVAPSQSLSITCTVSGFSLSIYSVHWVRQPPGKGLEWLGMIWGGGSSDYNSALKSRLSISKDNSKSQVFLKMNSLQTDDTAMYYCARNGGFYAMDYWGQGTSVTVSS
VL: QIVLTQSPAIMSASLGERVTMTCTASSSVSSSFLHWYQQKPGSSPQLWIYSTSNLASGVPARFSGSGSGTSYSLTISSMEAEDAATYYCHQYHHSPYIYTFGGGTKLEIK
B8: KB001 parental mouse Fab VH variant N100F (Fab, V domains shown)
VH: EVQLKQSGPGLVAPSQSLSITCTVSGFSLSIYSVHWVRQPPGKGLEWLGMIWGGGSSDYNSALKSRLSISKDNSKSQVFLKMNSLQTDDTAMYYCARNGFFYAMDYWGQGTSVTVSS
VL: QIVLTQSPAIMSASLGERVTMTCTASSSVSSSFLHWYQQKPGSSPQLWIYSTSNLASGVPARFSGSGSGTSYSLTISSMEAEDAATYYCHQYHHSPYIYTFGGGTKLEIK
B9: KB001 parental mouse Fab VH variant F101M (Fab, V domains shown)
VH: EVQLKQSGPGLVAPSQSLSITCTVSGFSLSIYSVHWVRQPPGKGLEWLGMIWGGGSSDYNSALKSRLSISKDNSKSQVFLKMNSLQTDDTAMYYCARNGNMYAMDYWGQGTSVTVSS
VL: QIVLTQSPAIMSASLGERVTMTCTASSSVSSSFLHWYQQKPGSSPQLWIYSTSNLASGVPARFSGSGSGTSYSLTISSMEAEDAATYYCHQYHHSPYIYTFGGGTKLEIK
B10: KB001 parental mouse Fab VH variant N100T (Fab, V domains shown)
VH: EVQLKQSGPGLVAPSQSLSITCTVSGFSLSIYSVHWVRQPPGKGLEWLGMIWGGGSSDYNSALKSRLSISKDNSKSQVFLKMNSLQTDDTAMYYCARNGTFYAMDYWGQGTSVTVSS
VL: QIVLTQSPAIMSASLGERVTMTCTASSSVSSSFLHWYQQKPGSSPQLWIYSTSNLASGVPARFSGSGSGTSYSLTISSMEAEDAATYYCHQYHHSPYIYTFGGGTKLEIK
B11: KB001 parental mouse Fab VH variant N100P (Fab, V domains shown)
VH: EVQLKQSGPGLVAPSQSLSITCTVSGFSLSIYSVHWVRQPPGKGLEWLGMIWGGGSSDYNSALKSRLSISKDNSKSQVFLKMNSLQTDDTAMYYCARNGPFYAMDYWGQGTSVTVSS
VL: QIVLTQSPAIMSASLGERVTMTCTASSSVSSSFLHWYQQKPGSSPQLWIYSTSNLASGVPARFSGSGSGTSYSLTISSMEAEDAATYYCHQYHHSPYIYTFGGGTKLEIK
B12: KB001 parental mouse Fab VH variant N100C (Fab, V domains shown)
VH: EVQLKQSGPGLVAPSQSLSITCTVSGFSLSIYSVHWVRQPPGKGLEWLGMIWGGGSSDYNSALKSRLSISKDNSKSQVFLKMNSLQTDDTAMYYCARNGCFYAMDYWGQGTSVTVSS
VL: QIVLTQSPAIMSASLGERVTMTCTASSSVSSSFLHWYQQKPGSSPQLWIYSTSNLASGVPARFSGSGSGTSYSLTISSMEAEDAATYYCHQYHHSPYIYTFGGGTKLEIK
B13: KB001 parental mouse Fab VH variant N100L (Fab, V domains shown)
VH: EVQLKQSGPGLVAPSQSLSITCTVSGFSLSIYSVHWVRQPPGKGLEWLGMIWGGGSSDYNSALKSRLSISKDNSKSQVFLKMNSLQTDDTAMYYCARNGLFYAMDYWGQGTSVTVSS
VL: QIVLTQSPAIMSASLGERVTMTCTASSSVSSSFLHWYQQKPGSSPQLWIYSTSNLASGVPARFSGSGSGTSYSLTISSMEAEDAATYYCHQYHHSPYIYTFGGGTKLEIK
B14: KB001 parental mouse Fab VH variant F101L (Fab, V domains shown)
VH: EVQLKQSGPGLVAPSQSLSITCTVSGFSLSIYSVHWVRQPPGKGLEWLGMIWGGGSSDYNSALKSRLSISKDNSKSQVFLKMNSLQTDDTAMYYCARNGNLYAMDYWGQGTSVTVSS
VL: QIVLTQSPAIMSASLGERVTMTCTASSSVSSSFLHWYQQKPGSSPQLWIYSTSNLASGVPARFSGSGSGTSYSLTISSMEAEDAATYYCHQYHHSPYIYTFGGGTKLEIK
B15: KB001 parental mouse Fab VH variant N100K (Fab, V domains shown)
VH: EVQLKQSGPGLVAPSQSLSITCTVSGFSLSIYSVHWVRQPPGKGLEWLGMIWGGGSSDYNSALKSRLSISKDNSKSQVFLKMNSLQTDDTAMYYCARNGKFYAMDYWGQGTSVTVSS
VL: QIVLTQSPAIMSASLGERVTMTCTASSSVSSSFLHWYQQKPGSSPQLWIYSTSNLASGVPARFSGSGSGTSYSLTISSMEAEDAATYYCHQYHHSPYIYTFGGGTKLEIK
B16: KB001 parental mouse Fab VH variant F101W (Fab, V domains shown)
VH: EVQLKQSGPGLVAPSQSLSITCTVSGFSLSIYSVHWVRQPPGKGLEWLGMIWGGGSSDYNSALKSRLSISKDNSKSQVFLKMNSLQTDDTAMYYCARNGNWYAMDYWGQGTSVTVSS
VL: QIVLTQSPAIMSASLGERVTMTCTASSSVSSSFLHWYQQKPGSSPQLWIYSTSNLASGVPARFSGSGSGTSYSLTISSMEAEDAATYYCHQYHHSPYIYTFGGGTKLEIK
B17: KB001 parental mouse Fab VH variant N100R (Fab, V domains shown)
VH: EVQLKQSGPGLVAPSQSLSITCTVSGFSLSIYSVHWVRQPPGKGLEWLGMIWGGGSSDYNSALKSRLSISKDNSKSQVFLKMNSLQTDDTAMYYCARNGRFYAMDYWGQGTSVTVSS
VL: QIVLTQSPAIMSASLGERVTMTCTASSSVSSSFLHWYQQKPGSSPQLWIYSTSNLASGVPARFSGSGSGTSYSLTISSMEAEDAATYYCHQYHHSPYIYTFGGGTKLEIK
B18: KB001 parental mouse Fab VH variant N100Q (Fab, V domains shown)
VH: EVQLKQSGPGLVAPSQSLSITCTVSGFSLSIYSVHWVRQPPGKGLEWLGMIWGGGSSDYNSALKSRLSISKDNSKSQVFLKMNSLQTDDTAMYYCARNGQFYAMDYWGQGTSVTVSS
VL: QIVLTQSPAIMSASLGERVTMTCTASSSVSSSFLHWYQQKPGSSPQLWIYSTSNLASGVPARFSGSGSGTSYSLTISSMEAEDAATYYCHQYHHSPYIYTFGGGTKLEIK
B19: KB001 parental mouse Fab VH variant N100A (Fab, V domains shown)
VH: EVQLKQSGPGLVAPSQSLSITCTVSGFSLSIYSVHWVRQPPGKGLEWLGMIWGGGSSDYNSALKSRLSISKDNSKSQVFLKMNSLQTDDTAMYYCARNGAFYAMDYWGQGTSVTVSS
VL: QIVLTQSPAIMSASLGERVTMTCTASSSVSSSFLHWYQQKPGSSPQLWIYSTSNLASGVPARFSGSGSGTSYSLTISSMEAEDAATYYCHQYHHSPYIYTFGGGTKLEIK
B20: KB001 parental mouse Fab VH variant N100E (Fab, V domains shown)
VH: EVQLKQSGPGLVAPSQSLSITCTVSGFSLSIYSVHWVRQPPGKGLEWLGMIWGGGSSDYNSALKSRLSISKDNSKSQVFLKMNSLQTDDTAMYYCARNGEFYAMDYWGQGTSVTVSS
VL: QIVLTQSPAIMSASLGERVTMTCTASSSVSSSFLHWYQQKPGSSPQLWIYSTSNLASGVPARFSGSGSGTSYSLTISSMEAEDAATYYCHQYHHSPYIYTFGGGTKLEIK

Biological target: HRgpA-6H (Porphyromonas gingivalis) (UniProt P28784)
Experiment: ELISA, Fab FASEBA supernatant on coated HRgpA-6H (0.0625 ug/ml)

Sequence of UniProt P28784 (P28784 228-991 limits assumed): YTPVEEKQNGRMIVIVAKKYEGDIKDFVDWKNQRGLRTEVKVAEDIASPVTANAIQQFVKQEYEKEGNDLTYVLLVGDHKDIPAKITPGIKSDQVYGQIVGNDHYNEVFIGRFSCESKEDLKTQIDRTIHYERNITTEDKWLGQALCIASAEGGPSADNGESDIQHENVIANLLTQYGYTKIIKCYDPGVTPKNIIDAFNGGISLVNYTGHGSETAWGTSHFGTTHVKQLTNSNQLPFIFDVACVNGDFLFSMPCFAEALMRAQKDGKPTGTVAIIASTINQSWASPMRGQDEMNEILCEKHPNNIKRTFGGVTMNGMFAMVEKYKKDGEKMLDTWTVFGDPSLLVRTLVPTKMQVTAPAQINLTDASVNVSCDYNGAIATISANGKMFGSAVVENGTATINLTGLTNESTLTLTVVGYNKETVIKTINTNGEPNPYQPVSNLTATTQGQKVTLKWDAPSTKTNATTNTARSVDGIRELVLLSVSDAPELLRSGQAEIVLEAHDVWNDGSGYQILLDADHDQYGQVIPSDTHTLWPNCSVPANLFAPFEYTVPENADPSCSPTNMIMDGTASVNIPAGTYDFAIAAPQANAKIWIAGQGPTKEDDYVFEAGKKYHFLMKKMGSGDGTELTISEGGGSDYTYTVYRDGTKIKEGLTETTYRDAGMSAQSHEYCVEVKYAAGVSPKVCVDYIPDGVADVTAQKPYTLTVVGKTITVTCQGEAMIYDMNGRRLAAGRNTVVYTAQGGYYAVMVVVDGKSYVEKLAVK

Binder | OD450nm | Ratio OD(Variant)/OD(WT)
B1 | 0.776 | 0.974
B2 | 0.757 and 0.784 and 0.699 | 0.894 and 0.926 and 0.825
B3 | 0.815 and 0.804 and 0.755 | 0.945 and 0.933 and 0.876
B4 | 0.796 and 0.833 | 0.94 and 0.983
B5 | 0.799 and 0.844 and 0.805 | 0.943 and 0.996 and 0.95
B6 | 0.678 and 0.725 | 0.8 and 0.856
B7 | 0.769 and 0.814 | 0.908 and 0.961
B8 | 0.779 | 0.92
B9 | 0.755 | 0.891
B10 | 0.756 and 0.783 | 0.893 and 0.924
B11 | 0.757 | 0.894
B12 | 0.688 | 0.812
B13 | 0.817 and 0.736 and 0.789 | 0.965 and 0.869 and 0.932
B14 | 0.681 | 0.804
B15 | 0.801 and 0.791 | 0.946 and 0.934
B16 | 0.825 and 0.828 and 0.802 | 0.974 and 0.978 and 0.947
B17 | 0.788 | 0.93
B18 | 0.846 | 0.999
B19 | 0.809 | 0.955
B20 | 0.823 | 0.972
